Laboratory results taken from article PMC12219854 (Nature Communications, 2025).

Assays:
[1] = target: GST-Bahcc1^TTD (murine Bahcc1 amino acids 1904-2044) (mouse, UniProt Q3UHR0 1904-2044); assay: pull-down
[2] = target: GST-53BP1^TTD (amino acids 1235-1709) (UniProt Q12888 1235-1709); assay: pull-down
GST-53BP1^TTD (amino acids 1235-1709), sequence (Q12888 1235-1709): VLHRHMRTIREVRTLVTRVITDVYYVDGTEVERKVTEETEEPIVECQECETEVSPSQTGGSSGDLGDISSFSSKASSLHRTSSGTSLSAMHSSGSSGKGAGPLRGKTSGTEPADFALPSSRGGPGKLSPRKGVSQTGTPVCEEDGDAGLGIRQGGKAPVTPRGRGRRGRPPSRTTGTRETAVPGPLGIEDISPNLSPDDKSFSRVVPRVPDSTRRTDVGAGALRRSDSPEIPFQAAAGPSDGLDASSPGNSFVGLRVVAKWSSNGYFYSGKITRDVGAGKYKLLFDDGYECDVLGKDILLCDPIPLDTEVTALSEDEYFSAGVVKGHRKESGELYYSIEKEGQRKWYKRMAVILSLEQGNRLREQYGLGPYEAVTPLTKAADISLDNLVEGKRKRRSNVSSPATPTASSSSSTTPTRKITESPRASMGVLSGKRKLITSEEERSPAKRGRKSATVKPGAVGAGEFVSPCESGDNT

GST-Bahcc1^TTD (murine Bahcc1 amino acids 1904-2044), sequence (Q3UHR0 1904-2044): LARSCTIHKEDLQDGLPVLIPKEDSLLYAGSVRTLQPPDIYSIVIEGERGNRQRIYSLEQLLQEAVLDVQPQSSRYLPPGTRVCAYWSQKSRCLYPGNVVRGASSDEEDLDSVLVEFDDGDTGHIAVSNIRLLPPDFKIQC

Row | Binder | binding result [1] | binding result [2]
1 | GKGGAKRHRKVLRDNIQ (peptide, UniProt P62805 12-28, looked up, monomethyl-lysine at K20; biotin (position not given)) [biotinylated H4 peptide, amino acids 11 to 27, H4K20me1] | binds | 
2 | GKGGAKRHRKVLRDNIQ (peptide, UniProt P62805 12-28, looked up, dimethyl-lysine at K20; biotin (position not given)) [biotinylated H4 peptide, amino acids 11 to 27, H4K20me2] |  | binds
